Reference: US20110263454A1, “Methods of Identifying Functional Characteristics of Promoters, Transcription Modifying Proteins and Transcription Modulating Agents” (Salk Institute for Biological Studies, priority 2008, published 2011)

Columns and labels:
hCYP3A4 promoter = test: NHR-promoter luciferase screen, hCYP3A4 promoter; format: cell-based, human; details: for Luc. act., normalized to lacZ / Normalized Luc. act., normalized to control: CYP3A4 promoter, HR/ligand component; for hCYP3A4 promoter reporter activity: transcription factor +/- ligand, control = 1.00
How it was run: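 CV-1 cells co-transfected with NHR homodimer or NHR/RXR heterodimer (pcDNA3.1, C-terminal V5H6 tag), promoter-luciferase construct and LacZ transfection control. Orphan receptors screened without ligand. Luciferase normalized to LacZ and to no-NHR/no-ligand control.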

RevErba promoter = test: NHR-promoter luciferase screen, RevErba (RVRa) promoter; format: cell-based; set-up: key to mRevErba promoter reporter activity / Normalized Luc. act., normalized to control: luciferase activity normalized to lacZ and to control (no NHR/ligand); details: for Luc. act., normalized to lacZ / Normalized Luc. act., normalized to control / normalized Luc. act. on a logarithmic scale (column without head, Table 33) / negative reciprocal of normalized Luc. act. (fold repression; Table 33): RVRa promoter; for Luc. act., normalized to lacZ / Normalized Luc. act., normalized to control: HR component without or with ligand; for normalized Luc. act. on a logarithmic scale (column without head, Table 33): log10 of activity normalized to control; for mRevErba promoter reporter activity: transcription factor +/- ligand, control = 1.00; for negative reciprocal of normalized Luc. act. (fold repression; Table 33): given only where activity is below control
How it was run: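 CV-1 cells co-transfected with NHR (pcDNA3.1, C-terminal V5H6 tag) as homodimer or RXR heterodimer, RevErbα promoter–luciferase reporter and LacZ transfection control; ligand added where applicable. Luciferase normalized to LacZ and to no-NHR/no-ligand control.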

hPOMC promoter = test: NHR-promoter luciferase screen, hPOMC promoter; format: cell-based, human; details: for Luc. act., normalized to lacZ / Normalized Luc. act., normalized to control: hPOMC promoter, HR/ligand component; for hPOMC promoter reporter activity: transcription factor +/- ligand, control = 1.00
How it was run: (§1)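 CV-1 cells were co-transfected with 50 ng NHR (homodimer or NHR/RXR heterodimer), 100 ng promoter-luciferase construct and 50 ng LacZ. Luciferase was normalized to LacZ and to a no-NHR/no-ligand control.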

hMDR1 promoter = test: NHR-promoter luciferase screen, hMDR1 promoter; format: cell-based, human; details: for Luc. act., normalized to lacZ / Normalized Luc. act., normalized to control: MDR1 promoter, HR/ligand component; for hMDR1 promoter reporter activity: transcription factor +/- ligand, control = 1.00
How it was run: as §1

mNPY promoter = test: NHR-promoter luciferase screen, mNPY promoter; format: cell-based, mouse; details: for Results of assays of transcription factor (+/- ligand) with mNPY: Table 6d, luciferase activity relative to control (control = 1.00); for Luc. act., normalized to lacZ / Normalized Luc. act., normalized to control: mNPY promoter, HR component with or without ligand; for Normalized Luc. act., normalized to control: relative to control
How it was run: as §1

Molecule	Luc. act., normalized to lacZ (hCYP3A4 promoter)	Normalized Luc. act., normalized to control (hCYP3A4 promoter)	hCYP3A4 promoter reporter activity (hCYP3A4 promoter)	Luc. act., normalized to lacZ (RevErba promoter)	Normalized Luc. act., normalized to control (RevErba promoter)	normalized Luc. act. on a logarithmic scale (column without head, Table 33) (RevErba promoter)	mRevErba promoter reporter activity (RevErba promoter)	Luc. act., normalized to lacZ (hPOMC promoter)	Normalized Luc. act., normalized to control (hPOMC promoter)	hPOMC promoter reporter activity (hPOMC promoter)	Luc. act., normalized to lacZ (hMDR1 promoter)	Normalized Luc. act., normalized to control (hMDR1 promoter)	hMDR1 promoter reporter activity (hMDR1 promoter)	Results of assays of transcription factor (+/- ligand) with mNPY (mNPY promoter)	Luc. act., normalized to lacZ (mNPY promoter)	Normalized Luc. act., normalized to control (mNPY promoter)	negative reciprocal of normalized Luc. act. (fold repression; Table 33) (RevErba promoter)
RORb: RAR-related Orphan Receptor β (NR1F2), cDNA driver (protein, UniProt Q92753 1-470, looked up) Nuclear receptor ROR-beta: MCENQLKTKADATAQIEVIPCKICGDKSSGIHYGVITCEGCKGFFRRSQQNNASYSCPRQRNCLIDRTNRNRCQHCRLQKCLALGMSRDAVKFGRMSKKQRDSLYAEVQKHQQRLQEQRQQQSGEAEALARVYSSSISNGLSNLNNETSGTYANGHVIDLPKSEGYYNVDSGQPSPDQSGLDMTGIKQIKQEPIYDLTSVPNLFTYSSFNNGQLAPGITMTEIDRIAQNIIKSHLETCQYTMEELHQLAWQTHTYEEIKAYQSKSREALWQQCAIQITHAIQYVVEFAKRITGFMELCQNDQILLLKSGCLEVVLVRMCRAFNPLNNTVLFEGKYGGMQMFKALGSDDLVNEAFDFAKNLCSLQLTEEEIALFSSAVLISPDRAWLIEPRKVQKLQEKIYFALQHVIQKNHLDDETLAKLIAKIPTITAVCNLHGEKLQVFKQSHPEIVNTLFPPLYKELFNPDCATGCK	2.5	0.6	0.56	29.93	1.1	0.03	1.07	2.2	0.5	0.52	0.2	0.6	0.58	1.12	94.2	1.1	–
RXRg: Retinoic X Receptor γ (NR2B3), cDNA driver (protein, UniProt P48443 1-463, looked up) Retinoic acid receptor …: MYGNYSHFMKFPAGYGGSPGHTGSTSMSPSAALSTGKPMDSHPSYTDTPVSAPRTLSAVGTPLNALGSPYRVITSAMGPPSGALAAPPGINLVAPPSSQLNVVNSVSSSEDIKPLPGLPGIGNMNYPSTSPGSLVKHICAICGDRSSGKHYGVYSCEGCKGFFKRTIRKDLIYTCRDNKDCLIDKRQRNRCQYCRYQKCLVMGMKREAVQEERQRSRERAESEAECATSGHEDMPVERILEAELAVEPKTESYGDMNMENSTNDPVTNICHAADKQLFTLVEWAKRIPHFSDLTLEDQVILLRAGWNELLIASFSHRSVSVQDGILLATGLHVHRSSAHSAGVGSIFDRVLTELVSKMKDMQMDKSELGCLRAIVLFNPDAKGLSNPSEVETLREKVYATLEAYTKQKYPEQPGRFAKLLLRLPALRSIGLKCLEHLFFFKLIGDTPIDTFLMEMLETPLQIT	0.9	0.2	0.19	24.64	0.9	−0.05	0.88	2.5	0.6	0.58	0.2	0.7	0.65	0.97	81.2	1.0	−1.135
CAR: Constitutive Androstane Receptor (NR1I3), cDNA driver (protein, UniProt Q14994 1-352, looked up) Nuclear receptor subfamily 1 …: MASREDELRNCVVCGDQATGYHFNALTCEGCKGFFRRTVSKSIGPTCPFAGSCEVSKTQRRHCPACRLQKCLDAGMRKDMILSAEALALRRAKQAQRRAQQTPVQLSKEQEELIRTLLGAHTRHMGTMFEQFVQFRPPAHLFIHHQPLPTLAPVLPLVTHFADINTFMVLQVIKFTKDLPVFRSLPIEDQISLLKGAAVEICHIVLNTTFCLQTQNFLCGPLRYTIEDGARVSPTVGFQVEFLELLFHFHGTLRKLQLQEPEYVLLAAMALFSPDRPGVTQRDEIDQLQEEMALTLQSYIKGQQRRPRDRFLYAKLLGLLAELRSINEAYGYQIQHIQGLSAMMPLLQEICS	3.1	0.7	0.70	40.00	1.4	0.16	1.43	4.3	1.0	1.00	0.2	0.7	0.68	0.88	74.2	0.9	–
PXR: Pregnane X Receptor (NR1I2), cDNA driver (protein, UniProt O75469 1-434, looked up) Nuclear receptor subfamily 1 …: MEVRPKESWNHADFVHCEDTESVPGKPSVNADEEVGGPQICRVCGDKATGYHFNVMTCEGCKGFFRRAMKRNARLRCPFRKGACEITRKTRRQCQACRLRKCLESGMKKEMIMSDEAVEERRALIKRKKSERTGTQPLGVQGLTEEQRMMIRELMDAQMKTFDTTFSHFKNFRLPGVLSSGCELPESLQAPSREEAAKWSQVRKDLCSLKVSLQLRGEDGSVWNYKPPADSGGKEIFSLLPHMADMSTYMFKGIISFAKVISYFRDLPIEDQISLLKGAAFELCQLRFNTVFNAETGTWECGRLSYCLEDTAGGFQQLLLEPMLKFHYMLKKLQLHEEEYVLMQAISLFSPDRPGVLQHRVVDQLQEQFAITLKSYIECNRPQPAHRFLFLKIMAMLTELRSINAQHTQRLLRIQDIHPFATPLMQELFGITGS	8.8	2.0	1.98	42.5	1.5	0.18	1.52	4.2	1.0	0.98	0.3	1.1	1.10	0.83	69.8	0.8	–
RXRb: Retinoic X Receptor β (NR2B2), cDNA driver (protein, UniProt P28702 1-533, looked up) Retinoic acid receptor …: MSWAARPPFLPQRHAAGQCGPVGVRKEMHCGVASRWRRRRPWLDPAAAAAAAVAGGEQQTPEPEPGEAGRDGMGDSGRDSRSPDSSSPNPLPQGVPPPSPPGPPLPPSTAPSLGGSGAPPPPPMPPPPLGSPFPVISSSMGSPGLPPPAPPGFSGPVSSPQINSTVSLPGGGSGPPEDVKPPVLGVRGLHCPPPPGGPGAGKRLCAICGDRSSGKHYGVYSCEGCKGFFKRTIRKDLTYSCRDNKDCTVDKRQRNRCQYCRYQKCLATGMKREAVQEERQRGKDKDGDGEGAGGAPEEMPVDRILEAELAVEQKSDQGVEGPGGTGGSGSSPNDPVTNICQAADKQLFTLVEWAKRIPHFSSLPLDDQVILLRAGWNELLIASFSHRSIDVRDGILLATGLHVHRNSAHSAGVGAIFDRVLTELVSKMRDMRMDKTELGCLRAIILFNPDAKGLSNPSEVEVLREKVYASLETYCKQKYPEQQGRFAKLLLRLPALRSIGLKCLEHLFFFKLIGDTPIDTFLMEMLEAPHQLA	0.3	0.1	0.06	17.38	0.6	−0.21	0.62	–	0.0	0.00	0.1	0.3	0.28	0.80	66.9	0.8	−1.609
